Reference: article PMC7186457

Experiments:
[1] = target: FLAG-L4 (ribosomal protein L4) (Escherichia coli (expressed in BL21(DE3) rne131)) (UniProt P60723); test: competition; details: EMSA: 30 C, 20 min, native 5% PAGE, ~2 ng RNA, 0.7-5.5 uM L4, buffer not given (cited method); footprinting: room temperature (25 C), RNase V1 in 1x RNA …
[2] = tested on: FLAG-L4 (ribosomal protein L4) (Escherichia coli (expressed in BL21(DE3) rne131)); test: EMSA; details: EMSA: 30 C, 20 min, native 5% PAGE, ~2 ng RNA, 0.7-5.5 uM L4, buffer not given (cited method); footprinting: room temperature (25 C), RNase V1 in 1x RNA …

| Substance | binding [1] | Kd [2] |
| --- | --- | --- |
| GGGGCUUAACGUCGCGUAAAUUGUUUAACACUUUGCGUAACGUACACUGGGAUCGCUGAAUUAGAGAUCGGCGUCCUUUCAUUCUAUAUACUUUGGAGUUUUAAAAUGUCUCUAAGUACUGAAGCAACAGCUAAAAUCGUUUCUGAG [rpsO-UTR RNA] | no binding |  |
| tnaC-tnaA transcribed spacer RNA (gel shift) |  | 2100 nM |
| GGGGGCUUGUCGUAGUUGACAGCAGGUUCAAUCUGAACCUCAGUUAGCCGAAUUUGGCUACCUAACAAUGCUCCCAAUCGGGGAGCUACGUAAGAACGGUUACACUCUCCCAUCAAUCGUAAUGGGUCUGAGGAGUAAUCAUUUUCGUUUAUAAAAUAAUUGGAGCUCUGGUCUC [S10-UTR RNA] | binds |  |
